This assay concerns the target T1, recombinant mouse E-selectin-human Fc chimera (mouse, UniProt Q00690 22-557).
T1 construct: Bought reagent (R&D Systems); Used as the probe in western blots and detected with HRP goat anti-human Ig; also called E-selectin-Ig chimera; E-Ig; not shown: human Fc
T1 sequence (looked up): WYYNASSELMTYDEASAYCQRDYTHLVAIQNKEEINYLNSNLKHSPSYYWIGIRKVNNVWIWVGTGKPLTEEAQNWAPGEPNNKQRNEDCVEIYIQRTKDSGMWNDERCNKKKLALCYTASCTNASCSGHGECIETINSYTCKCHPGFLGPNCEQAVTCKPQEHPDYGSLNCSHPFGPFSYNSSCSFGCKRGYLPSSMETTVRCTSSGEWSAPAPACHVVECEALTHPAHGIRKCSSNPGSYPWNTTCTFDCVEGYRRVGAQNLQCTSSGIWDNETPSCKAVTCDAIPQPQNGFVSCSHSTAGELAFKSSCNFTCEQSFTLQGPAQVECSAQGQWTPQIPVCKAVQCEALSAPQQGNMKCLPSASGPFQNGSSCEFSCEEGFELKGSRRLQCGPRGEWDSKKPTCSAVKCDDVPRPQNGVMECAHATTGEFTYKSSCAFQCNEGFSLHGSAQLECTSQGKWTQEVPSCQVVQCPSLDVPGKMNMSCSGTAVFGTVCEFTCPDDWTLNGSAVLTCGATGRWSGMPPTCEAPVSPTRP
In words: western blot of ML lysates and WGA-purified glycoproteins, reducing SDS-PAGE. For orientation: A western blot detects proteins with antibodies after separation by electrophoresis.

B1: P-selectin glycoprotein ligand-1 (PSGL-1), Cutaneous Lymphocyte Antigen glycoform, from ML lysates (ligand, human, UniProt Q14242 42-412, looked up)
chain: QATEYEYLDYDFLPETEPPEMLRNSTDTTPLTGPGTPESTTVEPAARRSTGLDAGGAVTELTTELANMGNLSTDSAAMEIQTTQPAATEAQTTQPVPTEAQTTPLAATEAQTTRLTATEAQTTPLAATEAQTTPPAATEAQTTQPTGLEAQTTAPAAMEAQTTAPAAMEAQTTPPAAMEAQTTQTTAMEAQTTAPEATEAQTTQPTATEAQTTPLAAMEALSTEPSATEALSMEPTTKRGLFIPFSVSSVTHKGIPMAASNLSVNYPVGAPDHISVKQCLLAILILALVATIFFVCTVVLAVRLSRKGHMYPVRNYSPTEMVCISSLLPDGGEGPSATANGGLSKAKSPGLTPEPREDREGDDLTLHSFLP
modifications: sialofucosylated glycans
notes: Named only by the position of its band in the blot; also called CLA; ~140 kDa E-selectin ligand
In the case of B1, the binding result was “binds”.

For the origin of these results see US20140199316A1 (published 2014).
